According to paper PMC11182334 (Cell, 2024):

Assays:
[1] = biological target: recombinant untagged VP6 of bluetongue virus, wild type (bluetongue virus (serotype of the cDNA not stated)); experiment: cryo-EM structure
SEC + AUC = biological target: the molecule itself; experiment: SEC + AUC
cryo-EM structure = biological target: the molecule itself; experiment: cryo-EM structure
[2] = biological target: T1, VP3 (WT, co-expressed with VP6);VP6 (WT) (Bluetongue virus;Bluetongue virus, UniProt D8V886;D8V892 1-901;1-329, |); experiment: EMSA
T1 sequence 1: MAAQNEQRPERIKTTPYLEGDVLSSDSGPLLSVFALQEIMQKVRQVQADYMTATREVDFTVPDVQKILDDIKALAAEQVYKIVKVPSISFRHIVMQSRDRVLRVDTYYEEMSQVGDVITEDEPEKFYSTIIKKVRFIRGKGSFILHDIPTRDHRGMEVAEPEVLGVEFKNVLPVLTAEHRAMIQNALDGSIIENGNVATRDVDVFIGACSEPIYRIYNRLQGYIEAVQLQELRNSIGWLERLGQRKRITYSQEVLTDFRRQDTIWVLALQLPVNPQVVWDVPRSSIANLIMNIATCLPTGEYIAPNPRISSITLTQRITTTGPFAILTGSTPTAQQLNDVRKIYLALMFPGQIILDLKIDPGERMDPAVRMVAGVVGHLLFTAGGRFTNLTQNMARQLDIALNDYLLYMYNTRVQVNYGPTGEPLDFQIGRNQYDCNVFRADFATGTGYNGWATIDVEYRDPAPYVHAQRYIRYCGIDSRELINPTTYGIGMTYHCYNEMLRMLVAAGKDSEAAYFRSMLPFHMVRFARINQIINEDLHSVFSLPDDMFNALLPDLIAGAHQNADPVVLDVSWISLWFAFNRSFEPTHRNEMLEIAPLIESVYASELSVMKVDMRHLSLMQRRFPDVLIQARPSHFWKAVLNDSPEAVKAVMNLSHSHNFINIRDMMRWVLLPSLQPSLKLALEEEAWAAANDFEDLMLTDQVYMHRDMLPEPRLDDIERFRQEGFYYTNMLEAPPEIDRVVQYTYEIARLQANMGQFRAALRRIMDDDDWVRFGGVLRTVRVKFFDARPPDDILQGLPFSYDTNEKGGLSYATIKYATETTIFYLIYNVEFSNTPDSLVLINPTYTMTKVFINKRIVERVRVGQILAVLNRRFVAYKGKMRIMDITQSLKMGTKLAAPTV
T1 sequence 2: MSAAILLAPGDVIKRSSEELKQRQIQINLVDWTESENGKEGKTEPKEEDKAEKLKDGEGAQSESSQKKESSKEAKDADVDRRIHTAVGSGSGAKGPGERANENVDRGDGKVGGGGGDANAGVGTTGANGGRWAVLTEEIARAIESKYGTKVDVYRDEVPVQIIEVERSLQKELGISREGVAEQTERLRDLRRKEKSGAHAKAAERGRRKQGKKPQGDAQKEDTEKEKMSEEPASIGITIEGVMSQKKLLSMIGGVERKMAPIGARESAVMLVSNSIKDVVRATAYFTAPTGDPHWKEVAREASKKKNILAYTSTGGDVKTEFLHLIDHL

[3] = biological target: T1, VP3 (WT, co-expressed with VP6);VP6 (WT); experiment: cryo-EM

In the case of “recombinant untagged VP6 of bluetongue virus, wild type (natural protein)”, the stoichiometry N [1] is reported as 5.

B1: recombinant His-tagged VP3 of bluetongue virus, wild type (natural protein)
chain: MAAQNEQRPERIKTTPYLEGDVLSSDSGPLLSVFALQEIMQKVRQVQADYMTATREVDFTVPDVQQILDDIKALAAAQVYKIVKVPSTSFRHIVTQSRDRVLRVDTYYEEMSQVGDVITEDEPEKFYSTIIKKVRFIRGKGSFILHDIPARDHRGMEVAEPEVLGVEFKNVLPVLTAEHRAMIQNALDGSIIENGNVATRDVDVFIGACSEPFYRIYNRFQGYIEAVQLQELRNSIGWLERLGQRKRITYSQEVLTDFRRQDMIWVLALQLPVNPQVVWDVPRSSIANLIMNIATCLPTGEYIAPNPRISSITLTQRITTTGPFAILTGSTPTAQQLNDVRKIYLALMFPGQIILDLKIDPGERMDPAVRMVAGVVGHLLFTAGGRFTNLTQNMARQLDIALNDYLLYMYNTRVQVNYGPTGEPLDFQIGRNQYDCNVFRADFATGTGYNGWATIDVEYRDPAPYVHAQRYIRYCGIDSRELINPTTYGIGMTYHCYNEMLRMLVAAGKDSEAAYFRSMLPFHMVRFARINQIINEDLHSVFSLPDDMFNALLPDLIAGAHQNADPVVLDVSWISLWFAFNRSFEPTHRNEMLEIAPLIESVYASELSVMKVDMRHLSLMQRRFPDVLIQARPSHFWKAVLNDSPEAVKAVMNLSHSHNFINIRDMMRWVLLPSLQPSLKLVLEEEAWAAANDFEDLMLTDQVYMHRDMLPEPRLDDIERFRQEGFYYTNMLEAPPEIDRVVQYTYEIARLQANMGQFRAALRRIMDDDDWIGFGGVLRTVRVKFFDARPPDDILQGLPFSYDTNEKGGLSYATIKYATETTIFYLIYNVEFSNTPDSLVLINPTYTMTKVFINKRIVERVRVGQILAVLNRRFVAYKGKMRIMDITQSLKMGTKLAAPTV
With B1 the “stoichiometry N” value (SEC + AUC) was roughly 4 and the “stoichiometry N” value (cryo-EM structure) was 4.

With GUUAAAAAAUCGCAUA (ssRNA) [Cy5-labeled 16 nt ssRNA] the “apparent K (half saturation)” value [2] was 192 nM.

UUUUUUUUUUUUUUUUUUUUUUUUUUUUUUUUUUUUUUUU (ssRNA) [40 nt poly-U ssRNA]: binds [3].
